Results: the DeepSol protein solubility set

Assay: soluble on expression in E. coli; label from the status in PepcDB or PDB records

Sequence | soluble on expression in E. coli
MSTRWRYYNSKRGNGFRGRGRGRGRGTSLTAVALPRDDNFHKGAQDGAYFKDMPMDPEQFRDETVLSLSFAQGMLGAAYYEQSSQLLKIMNDISEDLEFRFLKRLIDDVKPTLIIANRSQDLEFIKFLTTRYDPQEKIYEDGTTEEGTSEDTVPTWDSSLAYSTDETTAEKEEKEEDEDDDDEGLPAKLNKLPNNFFRMSRAIERLKAMAGSHDSSMTEEDKYIIIKMRFDIEAVNMIRSFGALLLFLDETRMGVTDDPLSVTSPIKSIKTFTLGNLVEIDFNTIQALDILPKETENKKTFGQGRSLYQLMDKCRSTVGKKCLRKWFRNPTTDRDDLVSRQKCVHYFKQDWNAEVTAKLSSILGRVKALNSVFQKFQSGTAQLIHWECFVSTVNALVEILNIIRQTPISKEFPVESDLLREVSEIAVIAGSIINFAESKIQGRVTVMNGIDEELDEIRDTYENMPMVLTAIAKQEEARLGLPPYSNVACVYIPLVGFVLSVPRDYGVESQPDMTLLYSTHEDLRVRNATTSRLDDEFGDILMRLIDSQTAIILTLKTRVMKKKRSIIKLLSIASRIDVLISFGLIAAQNGWNCPALVDEPVIEAVELYHPISVLVVKKSFVPNQVSSGRDGIKASIITGPNACGKSVYMKSIGIMVFLSHIGSFVPARHAKIGIVDRIVTRMFTVDSVLDGMSTFAKDVEQVALALRKATGNSLVIIDEFGKGTMTEVGLSLLASVMTYWMNRGADRCPHIFLSSHFHALPNYIPLETNIATFLTFTVLREAGGKIKYLFRMTPGLVDCSFALSVAKEEGIPPPVIGRACRIYKALKAGTLLKEIKAEVSNDNEKQLVEDMDVVLADEDGFMAAVESFVKRKKTSFCESSMRNVSEEIEKERSEASTPASKSRSTITARSNSVLSSRSMASVDQLSVLDALLPKKKKKKVTGSSMESSMSPDPFQEEDEGTEGEEDQISAPVSRPTLPSVQKYASEEEKQQSINSRHSFSTRTAIHIPTPIQMGEAGGVKRPRSTSTSSPGPSASKSVRTEVFKKTPNVKESQVLETPKQLSISSFLEPKFPSSEKDVISRVSERYLQSDPFKTPISDRRSQQSSRHSTPKNRSMNQSLIQSARDTPHETIRSSNEVNPEFFNIFNFPDDSILKSQDTYDPNVTPRSSSRRELRPDVSHSQNSQFGEVFSELGTQFSIFNSQQSFPGNSMGTTNPDCSIFDDFFANSQDGEKKIDSTKTSMPIVNSDNFIFKTPEPRSSEKQRSLLKNKGQASNSSISPSSLILGQLAFGDVDQTPRPRGDNPIEFQYDVVDDDDPIFEEKNCSAPVFEFLKSNDDEEDDEFLKSFLETEGSLHIDTSADETIDRSKRS | not soluble
MAHHHHHHMQLQPPKPIIKDFNVGISPLVQTRLPLVFAQGEYPPPMQDVLLVGISLKADFSAVWDWNTKHMYVACIGRYHTKSNMTVGGVNLQKTHDVTIFDKVLRSKEEAANWTLDNAKKYALENEELGSLAGAAVELMILYHPMRHYGYSPYYTVQPGKNPVMFQLPTAYEKRTEEDDKNAMCSRGYA | not soluble
MSREDELLEKLDECENATAFLQVSNKIINLKLKALLPSVFVQDDLVKEYAVDPLLREDGPLVTTDVVSKLMFAMGKISLQTYADIGLYDQVLEYVVTQPEKIAFTDDVIYDFIKNQAVLSSQQDCFYLESINQLKFSSFESFSQMRYESLIKTVLKLSCEMLIERIEE | not soluble
MGIAEWRYQDVPEKLWPIQPLRDFWGINKRTEKKLNKRGIFTIGDLAKYPYHYLKRDFGVLGIDMHLHANGIDQSKLEHHHHHH | not soluble
MGSSHHHHHHSSGLVPRGSHMNAPIETDVLILGGGPVGMALALDLAHRQVGHLVVEQTDGTITHPRVGTIGPRSMELFRRWGVAKQIRTAGWPGDHPLDAAWVTRVGGHEVYRIPLGTADTRATPEHTPEPDAICPQHWLAPLLAEAVGERLRTRSRLDSFEQRDDHVRATITDLRTGATRAVHARYLVACDGASSPTRKALGIDAPPRHRTQVFRNILFRAPELRSLLGERAALFFFLMLSSSLRFPLRALDGRGLYRLTVGVDDASKSTMDSFELVRRAVAFDTEIEVLSDSEWHLTHRVADSFSAGRVFLTGDAAHTLSPSGGFGMNTGIGSAADLGWKLAATLRGWAGPGLLATYEEERRPVAITSLEEANVNLRRTMDRELPPGLHDDGPRGERIRAAVAEKLERSGARREFDAPGIHFGHTYRSSIVCGEPETEVATGGWRPSARPGARAPHAWLTPTTSTLDLFGRGFVLLSFGTTDGVEAVTRAFADRHVPLETVTCHAPEIHALYERAHVLVRPDGHVAWRGDHLPAELGGLVDKVRGAA | soluble
QHLNALMNKEILGKKPGKKKKDKTKRPVLYVIDFSGDIKATQVEQLRDEVTSVLSIAKPEDEVLVRLESPGGAVNGYGLAASQLQRIRDKKIPLTVSIDKMAASGGYLMACVANKIIAAPFAIIGSIGVVAQIPNFHRWLKKNNIDVELLTAGEYKRTLTLFAENTEKGRKKFQEDLEKIHTAFREYVLKNRSQLDIDKVATGEHWIAKDAFDLRLVDKLATSDE | not soluble
MGSDKIHHHHHHMTARQDLVDLIAAIDAGSGPARNPYWRDLAVDDSVARKAAVLMLFGALDNVPAASGKPLAPADLDVLLLERAHTLDDHPGQVAFPGGGIDPGETPIEAALREAEEETGLDSAGVEVLGAMPQLALPRGNFLVTPVLAWWHSPSPVRVVDYGESAQVFRVPVRDLLDPDNRVMATVSRAGQSFLSPAFVVNKVVVWGFTGMILNELFDHLGWSVPWDRSRLHQIDV | not soluble
AIAWNKKNEEKEDFGIIVILWKQVTVKEDGKVPLEPFLTAAKEVLRVVDAFGSGFRIVKNDIAGNIKKLYRANQTVHAETLQELIIAENSPDGLATVALLWLKRAFQFIASFLRRLVVTDKSLEQCVTEAYNCTLRPCHSAVIQKVFWGGVKLAPSRERFYRKLHPDLNIAKAKIEEFLIELHDPLCCIVQFFFQRELEDQCWGDEVYQRKDSSEWLKVSCEQDSV | soluble
MEIERINEHTVKFYISYVDIEERGFDREEIWYNRERSEELFWEMMDEVHGESDFSLDGPLWIQVQALEKGLEVVVTKAQLSKDGSKLELPLPEEKWREFSLSADEKVESLFGHHFHFGQNGDAEEREEQDVLRFILSFKDIEDVISLAHRADFSRLSNRLFQFEGRYYLFVEFDERYTEQEVDNMLSLLLEYGSDSQLTIYRLEEYGTEIMGDNALETIKTYFPAS | not soluble
MTDLIHRPRRLRKSAALRAMFEETTLSLNDLVLPIFVEEELDDYKAIDAMPGVMRIPEKQLAREIERIANAGIRSVMTFGISHHTDDTGSDTWKEDGLVARMSRICKQTVPEMIVMSDTCFCEYTSHGHCGVLCEHGVDNDATLANLGKQAVIAAAAGADFIAPSAAMDGQVQAIRQALDAAGFTDTAIMSYSTKFASSFYGPFREAAGTALKGDRKTYQMNPMNRREAIRESLLDEAQGADCLMVKPAGAYLDVLREIRERTELPLGAYQVSGEYAMIKFAAMAGAIDEEKVVLESLGSIKRAGADLIFSYFALDLAEKNILR | not soluble
MAGYALKRLMTEYKELTTRPPEGIIAAPIDEDNFFEWECLITGPEETCFANGVFPARITFPQDYPLSPPKMRFTCGIFHPNIYADGRVCISILHAPGDDPTGYELSNERWSPVQSIEKILLSVVSMLAEPNDESPANVSAAKMWREDRAQFEKIADSLVRKTLCLPASEV | not soluble
MAIVPFKRDPTFYPSPKMAMKAPPEDLAYVACLYTGTGINRADFIAVVDVNPKSETYSKIVHKVELPYINDELHHFGWNACSSALCPNGKPNIERRFLIVPGLRSSRIYIIDTKPNPREPKIIKVIEPEEVKKVSGYSRLHTVHCGPDAIYISALGNEEGEGPGGILMLDHYSFEPLGKWEIDRGDQYLAYDFWWNLPNEVLVSSEWAVPNTIEDGLKLEHLKDRYGNRIHFWDLRKRKRIHSLTLGEENRMALELRPLHDPTKLMGFINMVVSLKDLSSSIWLWFYEDGKWNAEKVIEIPAEPLEGNLPEILKPFKAVPPLVTDIDISLDDKFLYLSLWGIGEVRQYDISNPFKPVLTGKVKLGGIFHRADHPAGHKLTGAPQMLEISRDGRRVYVTNSLYSTWDNQFYPEGLKGWMVKLNANPSGGLEIDKEFFVDFGEARSHQVRLSGGDASSDSYCYP | soluble
GSASKICQFKLVLLGESAVGKSSLVLRFVKGQFHEYQESTIGAAFLTQSVCLDDTTVKFEIWDTAGQERYHSLAPMYYRGAQAAIVVYDITNQETFARAKTWVKELQRQASPSIVIALAGNKADLANKRMVEYEEAQAYADDNSLLFMETSAKTAMNVNDLFLAIAKKLPKSEPQNLGG | soluble
SGNTSSERTGMGQEKANRRDSRGTKEGDRPKILMDSPEDADIFHGEDLKAPLEKEEFIEWRPDLEGSEKTDTLDRPTVFRWTGAGKEVYISGSFNNWTNKIPLIRSQNNFVAIVDLPEGEHQYKFYVDGLWTHDPTEPVVTNQLGTVNNIIQVKKTDFEVFDALMVDSQKCSDMSDLSSSPPGPYHQDAYTPKQEEKFKSPPILPPHLLQVILNKDTGISCDPALLPEPNHVMLNHLYALSIKDGVMVLSATHRYKKKYVTTLLYKPI | not soluble
MSLLACCAIYSPVRCAFPYTETERRFTCKRRIFRIILTLCGRENMKIRALLVAMSVATVLTGCQNMDSNGLLSSGAEAFQAYSLSDAQVKTLSDQACQEMDSKATIAPANSEYAKRLTTIANALGNNINGQPVNYKVYMAKDVNAFAMANGCIRVYSGLMDMMTDNEVEAVIGHEMGHVALGHVKKGMQVALGTNAVRVAAASAGGIVGSLSQSQLGNLGEKLVNSQFSQRQEAEADDYSYDLLRQRGISPAGLATSFEKLAKLEEGRQSSMFDDHPASAERAQHIRDRMSADGIKEGGSHHHHHH | soluble
MNILQFNVRLAEGGAAGVALDLHQRALQQGLASHFVYGYGKGGKESVSHQNYPQVIKHTPRMTAMANIALFRLFNRDLFGNFNELYRTITRTAGPVVLHFHVLHSYWLNLKSVVRFCEKVKNHKPDVTLVWTLHDHWSVTGRCAFTDGCEGWKTGCQKCPTLNNYPPVKIDRAHQLVAGKRQLFREMLALGCQFISPSQHVADAFNSLYGPGRCRIINNGIDMATEAILADLPPVRETQGKPKIAVVAHDLRYDGKTNQQLVREMMALGDKIELHTFGKFSPFTAGNVVNHGFETDKRKLMSALNQMDALVFSSRVDNYPLILCEALSIGVPVIATHSDAAREVLQKSGGKTVSEEEVLQLVQLSKPEIAQAIFGTTLAEFSQRSRAAYSGQQMLEEYVNFYQNL | soluble
MMDITTLDQFKDEIYGVKGTPRRDNLERELETLRIGVQIRNARQKKEMTQAQLAERINKKRTFISKVENDGGNLTLKTLIDIVERGLGGKLNIEVKI | not soluble
MAAYYRWKSFEENEDRPEKPRRYGVTEMRGPHYSVLSQNLLQEIFESMGQFVDGLKFSGGSNSLIPKSFIKQAIEMAHEHGVYVSTGDWAEHMLRSGPSAFKDYVEECKQLGFDTIELNANLLEVPEETLLRYVRLIKNGGLRAKPMFAVKFNKSDIPGRNRAFGSYVVPEPRSSEFVEDIDLLIRKAERCLEAGADTIMIDADDVCKYADSLRADIIAKVIGRLGIEKTMFEASDAKLVEWFIKRYGPNVNLYVDHSQIMDLECLRGRHLGKDHQSVLSSSYFLF | soluble
PTNIHKIHEVQKKLQEEVSIVLIDIADIIVNPKKENGYSRDLYTLNSLIDSSISETYDNINNTLLSDTRFFLEHMDIIKSQRDILENLYSYVSQLNSTPPQAHILSAFIHKIGYTEFEAETGNLLLEELKRLMISMKNQPLPVDRTEFENRAILFLCLTELKQFLVNRKHAQML | soluble
